According to the supplement of paper PMC9170038:

Test system: MS2 coat protein
Assay: apparent KD of MS2 coat protein; designed switch direction (-1 OFF switch, 1 ON switch): -1; higher = weaker reporter binding
Summary of the method: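 Stalled E. coli RNA polymerase transcribed designed RNA switches on Illumina chips, which were then titrated with SNAP-549-labelled MS2 coat protein, doubling from 0.7 or 1.5 nM to 3 µM. Steps lasted from 0.8–1.5 h at the lowest concentration to 10–20 min at the highest. The apparent KD is each design's median over clusters of curve-fitted normalised fluorescence.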

[1] = input ligand: microRNA oligo, concentration not stated
[2] = Eterna round: R95, input ligand: FMN 200 uM
[3] = Eterna round: R95, input ligand: microRNA oligo, concentration not stated
[4] = Eterna round: R95, input ligand: none

Sequence	apparent KD of MS2 coat protein (input ligand: FMN 200 uM) [nM]	apparent KD of MS2 coat protein [1] [nM]	apparent KD of MS2 coat protein (input ligand: none) [nM]	apparent KD of MS2 coat protein [2] [nM]	apparent KD of MS2 coat protein [3] [nM]	apparent KD of MS2 coat protein [4] [nM]
ACAUGUAUUGCAGGAUAUGGGACACAUGAGGAUCACCCAUGUGACCACAUGUAAUGCCACGGGUCUCAGAAGGGUAUGUACAUG [Ex NG2 #43] (Eterna round: R96, puzzle: Exclusion NG 2)	117	22.9	26.6			
ACAUGUCAUCUAGGAUAUUGGACACAUGAGGAUCACCCAUGUACCCGGAGGCUUUACUAUGAGUUCGAGAAGGAGAUGUACAUG [Ex NG2 #72] (Eterna round: R96, puzzle: Exclusion NG 2)	133	38.6	57.9			
ACAUGUCAUUGAGGAUAUCGCACACAUGAGGAUCACCCAUGUAAACGGAUGCUCAUUAGUGGGUUCGAGAAGGCGAUGUACAUU [Ex NG2 #99] (Eterna round: R96, puzzle: Exclusion NG 2)	64.7	72.9	68.5			
ACAUGUGUUGUAGGAUAUAGGACACAUGAGGAUCACCCAUGUGGUUUCAUGUCUAACCAAGCGUCCUAGAAGGACGGCAACAUG [Ex NG2 #27] (Eterna round: R96, puzzle: Exclusion NG 2)	23.4	19.4	19.4			
ACAUGUUAUCCAUGAUAUCACAUGAGGAUCACCCAUGUUAAGGCGAUUUUGAGGUGUAAGCUUUGUGCUCGACUUAU [JR_STOV1_Sub055] (Eterna round: R97, puzzle: Sensor, turn-off variant 1)	107		78.8			
ACCAGACAUGAGGAUCACCCAUGUCAGGAUAUUAUUCUACCUGAAGUUCGGGAUUGUGUGAGAAGGGACUGGGA [Eternabot (L2) Solution 86] (Eterna round: R97, puzzle: Exclusion 1)	17.4		16.1			
ACCAUGUAAGGAUAUCUCGUACAAAGACGCAACUCGUCCAGAGAGAAGGUACAUGAGGAUCACCCAUGUAGACA [Eternabot (Original) Solution 39] (Eterna round: R97, puzzle: Exclusion 4)	152		33.5			
ACCCAACAUGAGGAUCACCCAUGUCAGGAUAUCCAAGCGAAAGCAAAAGCGAAAGCAAGGAGAAGGGACAAUGG [ChP 04-04-2015 #7] (puzzle: Exclusion 1)				134	161	276
ACCCAACAUGAGGAUCACCCAUGUCAGGAUAUCCAUCAAAAGCACGAAAGGCGAGGAUGGAGAAGGGACAGAGG [ChP 04-04-2015 #2] (puzzle: Exclusion 1)				335	178	128
ACCCAACAUGAGGAUCACCCAUGUCAGGAUAUCCAUCUAUACUCGAAAGAGUAUAGAUGGAGAAGGGACAGAGG [ChP 04-04-2015 #4] (puzzle: Exclusion 1)					104	
ACCCAGUCAGGAUAUCCGGAGUUCCGCGAUGGCGGACGGUAGGAGAAGGGACAUGAGGAUCACCCAUGUAGAAA [EX4 B.17] (Eterna round: R97, puzzle: Exclusion 4)	179		34.7			
ACCGAAGCAGGAUAUACAUGAGGAUCACCCAUGUGCUUGCAUGGCGUGGGAAGUCAUAGUAGAAGGGCUACGCC [Onzaza] (Eterna round: R97, puzzle: Exclusion 3)	53		22.4			
ACCGGUGUUGCGGAUAAGCUUUUCUGCUCGUUUUAUCGCACAUGAGGAUCACCCAUGUCAUCCGUCAGCAUGCAAAC [Usveen] (puzzle: Sensor v3, turn-off variant 2)				22.6	38.8	25.1
ACCUCACAUGAGGAUCACCCAUGUCAGGAUAUCUUUUAUUACAGCAAUCCUGUCGCUGAGAGAAGGGACAUUAA [EX1 #25] (Eterna round: R97, puzzle: Exclusion 1)	33.8		28.1			
ACCUCACAUGAGGAUCACCCAUGUCAGGAUAUCUUUUAUUGCAGCAAUCCUGUCGCUGAGAGAAGGGACAUUAA [EX1 #26] (Eterna round: R97, puzzle: Exclusion 1)	30.7		26.5			
ACCUCACUUGAGGAUCACCCAAGUCAGGAUAUACUCGUUUGCCGCGCGACGCGGCAUUGUAGAAGGGACGGGCU [Orquisates] (Eterna round: R97, puzzle: Exclusion 1)	32		18.8			
ACCUCUUGAGGAUAUACAUGAGGAUCACCCAUGUUCCUUAAUAAAAUAGUUAUAUCGUGUAGAAGGUGGGAGGC [Eternabot (L2) Solution 42] (Eterna round: R97, puzzle: Exclusion 3)	11.4		69			
ACGAGGUCAGGAUAUACGGAGAGAGGGAGUUGGUUAGGGUAACAUGAGGAUCACCCAUGUAGAAGGGACUAGGG [JR_Exclu2_Sub080] (puzzle: Exclusion 2)					39.9	
ACGAUGACAGAAAGAAGUCAAAAGACAUGAGGAUCACCCAUGUAGGAUAUGGCUACGAAAAGUAGUCAGAAGGACAUGUCAUCA [Omei Exc(NG) 3 Av3] (Eterna round: R96, puzzle: Exclusion NG 3)	13.5	8.79	16.8			
ACGCAUUGCCUUUGGUAGUGCGUAACAUGAGGAUCACCCAUGUAGGAUAUGGUAGGCUUUGCUUACCAGAAGGACAUUAUAAAG [Mat - Exclusion NG 3 - Mod of JL - D10] (Eterna round: R96, puzzle: Exclusion NG 3)	51.6	28.4	34.1			
ACGCGAGUAGGAGGAUAUUCUGAGCGCGGGCCAGAAGAAGGCCUAGAUCGUGAACAUGAGGAUCACCCAUGUGGGAUGAUCUAA [Vevexeaus] (Eterna round: R96, puzzle: Exclusion NG 1)	180	224	307			
ACGGGUAAGUAAGGAUAUCCAACAGGCUGAAUUCAACCUGAACAUGAGGAUCACCCAUGUGGGUGGGAGAAGGUACUCUCCCGC [Diladiaen] (Eterna round: R96, puzzle: Exclusion NG 2)	86.5	65.5	93.7			
